B1: proteinase K: protease reacted with TMR-α-casein substrate (protein, UniProt P06873 106-384, looked up)
Proteinase K: AAQTNAPWGLARISSTSPGTSTYYYDESAGQGSCVYVIDTGIEASHPEFEGRAQMVKTYYYSSRDGNGHGTHCAGTVGSRTYGVAKKTQLFGVKVLDDNGSGQYSTIIAGMDFVASDKNNRNCPKGVVASLSLGGGYSSSVNSAAARLQSSGVMVAVAAGNNNADARNYSPASEPSVCTVGASDRYDRRSSFSNYGSVLDIFGPGTSILSTWIGGSTRSISGTSMATPHVAGLAAYLMTLGKTTAASACRYIADTANKGDLSNIPFGTVNLLAYNNYQA
B2: papain: protease reacted with TMR-α-casein substrate (protein, UniProt P00784 134-345, looked up)
Papain: IPEYVDWRQKGAVTPVKNQGSCGSCWAFSAVVTIEGIIKIRTGNLNEYSEQELLDCDRRSYGCNGGYPWSALQLVAQYGIHYRNTYPYEGVQRYCRSREKGPYAAKTDGVRQVQPYNEGALLYSIANQPVSVVLEAAGKDFQLYRGGIFVGPCGNKVDHAVAAVGYGPNYILIKNSWGTGWGENGYIRIKRGTGNSYGVCGLYTSSFYPVKN

Assays:
[1] = system: TMR-α-casein; experiment: On-chip protease assay by fluorescence polarization of TMR-α-casein substrate, lab-on-a-chip with optical chopper; type: biochemical; conditions: 1 μM TMR-α-casein final in channel; reaction time 5.1 seconds; FIGS. 10A-10D
Experimental: Next, the protease assays were carried out using an apparatus for measuring fluorescence polarization including the optical chopper of FIG. 2 on a lab-on-a-chip of glass composed of a channel 1 C1, in which substrates or enzymes flowed, and a channel 2 C2, in which the reaction occurred, the channels having a depth of 12 μm and a width of 79 μm as depicted in FIG. 8.
For on-chip protease assays, the substrates and the enzymes should mix completely prior to the enzyme reactions. […] […] Therefore, the reaction time was confirmed to be 5.1 seconds after mixing of the substrate with the enzymes.
Subsequently, to carry out the protease assays in the lab-on-a-chip,2 μM of TMR-α-casein (the final concentration in the channel was 1 μM) was placed in a substrate reservoir and the respective proteases were placed in an enzyme reservoir at increasing concentrations in the same manner as the comparative example. Then, the two substances were allowed to flow into a channel 2 C2, a main channel, to cause a reaction. Fluorescence polarization FP was then measured at the detection point, positioned 32 mm away from the junction, from which the substrates and the enzymes flowed in.
Again, it was noted that fluorescence polarization values plateaued when the concentration of the enzymes reached at the point generating a specific rate or more.

[2] = system: TMR-α-casein; experiment: Protease assay by fluorescence polarization of TMR-α-casein substrate, commercial fluorescence spectrometer; type: biochemical; conditions: time course, varying enzyme concentrations (unit/mL); FIGS. 9A-9D
Experimental: Changes of fluorescence polarization FP were measured using the method and apparatus for measuring fluorescence polarization of the present invention, employing TMR-α-casein as a substrate, composed of TMR as a fluorescent probe and α-casein, a universal protein substrate reacted with various proteases.
First, TMR-α-casein, a fluorescently labeled substrate for proteases, was prepared by applying one of the well-known methods [Analytical Biochemistry (,1996) 243, 1-7] as follows.
10 mg/mL of α-casein (sigma) and 5 mg/mL of 5-carboxytetramethylrhodamine succinimidyl ester were mixed in 0.1 M sodium bicarbonate buffer solution (pH 9.0) for reaction at room temperature for two and a half hours. The resulting TMR-α-casein was purified by passing the reaction mixture over a HiTrap desalting column (Sephadex G-25 Amersham Bioscience), and used after quantitation of the amounts of protein and fluorescence.
Proteinase K, trypsin, papain and elastase were used as proteases to react at increasing concentrations. First, as a comparative example, the process that the TMR-α-casein substrate was degraded by the proteases was analyzed using a commercial fluorescence spectrometer (Perkin Elmer). […]

Molecule	change of fluorescence polarization values of TMR-α-casein with enzyme concentration [1]	change of fluorescence polarization values of TMR-α-casein as the reaction proceeded [2]
B1	decreased with increasing concentrations	decreased
B2	decreased with increasing concentrations	decreased
